Biological target: EGFR (human) (UniProt P00533)
Assay: cell-based or functional assay

For cetuximab-saporin (antibody), the cell killing (MTS) IC50, titrated alone, MDA-MB-468 cells (EGFR++) was 0.3 nM.
